Results on three molecules are retold here after patent US10704030B2, “P450-BM3 variants with improved activity” (Codexis, Inc., priority 2015, dated 2020).

Holding throughout (assay type): biochemical
The nature of data set [1]: Validation of generalist properties: oxidation of diclofenac by lyophilized P450-BM3 variant, UPLC-MS. The conditions noted are these: [Diclofenac] = 1 mM; for TON: TON = [substrate]*% conversion/[P450]; for FIOPC (F02): fold improvement over parent MCYP-P1.2-F02. The essentials: (§1)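 Lyophilized lysate of E. coli-expressed P450-BM3 variant (stock standardized to 12 μM heme) was incubated 24 h at 30 °C with 1 or 2 mM substrate, 1.0 mM NADP+, 25 mM glucose, 0.5 mg/mL glucose dehydrogenase and 5% DMSO in 100 mM potassium phosphate. Acetonitrile-quenched samples were analyzed by UPLC-MS (positive ESI).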

A short description of data set [2]: Validation of generalist properties: oxidation of gefitinib by lyophilized P450-BM3 variant, UPLC-MS. The conditions noted are these: [Gefitinib] = 1 mM; for TON: TON = [substrate]*% conversion/[P450]; for FIOPC (F02): fold improvement over parent MCYP-P1.2-F02. The essentials: as §1
Data set [3] is described as follows: Validation of generalist properties: oxidation of loratadine by lyophilized P450-BM3 variant, UPLC-MS. Particulars: [Loratadine] = 1 mM; for TON: TON = [substrate]*% conversion/[P450]; for FIOPC (F02): fold improvement over parent MCYP-P1.2-F02. The essentials:
as §1

The nature of data set [4]: Validation of generalist properties: oxidation of imatinib by lyophilized P450-BM3 variant, UPLC-MS. The conditions noted are these: [Imatinib] = 1 mM; for TON: TON = [substrate]*% conversion/[P450]; for FIOPC (F02): fold improvement over parent MCYP-P1.2-F02. The essentials: as §1

B1: SEQ ID NO:16: P450-BM3 parental backbone from the commercially available MCYP panel (MCYP-0343; Codexis) (protein)
chain: MTIKEMPQPKTFGELKNLPLLNTDKPVQALMKIADELGEIFKFEAPGCVTRYLSSQRLIKEACDESRFDKNLSQALKFARDFLGDGLVTSWTHEINWKKAHNILLPSFSQQAMKGYHAMMVDIAVQLVQKWERLNADEHIEVSEDMTRLTLDTIGLCGFNYRFNSFYRDQPHPFIISMVRALDEVMNKLQRANPDDPAYDENKRQCQEDIKVMNDLVDKIIADRKARGEQSDDLLTQMLNGKDPETGEPLDDGNISYQIITFLIAGHETTSGLLSFALYFLVKNPHVLQKVAEEAARVLVDPVPSYKQVKQLKYVGMVLNEALRLWPTAPAFSLYAKEDTVLGGEYPLEKGDEVMVLIPQLHRDKTIWGDDVEEFRPERFENPSAIPQHAFKPFGNGQRACIGQQFALHEATLVLGMMLKHFDFEDHTNYELDIKETLTLKPEGFVVKAKSKKIPLGGIPSPSTEQSAKKVRKKAENAHNTPLLVLYGSNMGTAEGTARDLADIAMSKGFAPQVATLDSHAGNLPREGAVLIVTASYNGHPPDNAKQFVDWLDQASADEVKGVRYSVFGCGDKNWATTYQKVPAFIDETLAAKGAENIADRGEADASDDFEGTYEEWREHMWSDVAAYFNLDIENSEDNKSTLSLQFVDSAADMPLAKMHGAFSTNVVASKELQQPGSARSTRHLEIELPKEASYQEGDHLGVIPRNYEGIVNRVTARFGLDASQQIRLEAEEEKLAHLPLAKTVSVEELLQYVELQDPVTRTQLRAMAAKTVCPPHKVELEALLEKQAYKEQVLAKRLTMLELLEKYPACEMKFSEFIALLPSIRPRYYSISSSPRVDEKQASITVSVVSGEAWSGYGEYKGIASNYLAELQEGDTITCFISTPQSEFTLPKDPETPLIMVGPGTGVAPFRGFVQARKQLKEQGQSLGEAHLYFGCRSPHEDYLYQEELENAQSEGIITLHTAFSRMPNQPKTYVQHVMEQDGKKLIELLDQGAHFYICGDGSQMAPAVEATLMKSYADVHQVSEADARLWLQQLEEKGRYAKDVWAG
modifications: P450_BM3
B1: the “% Conv.” value in data set [1] is “++++ (15.01-20.00)”; in data set [2], “+ (0-5.00)”; in data set [3], “+++ (10.01-15.00)”; in data set [4], “+ (0-5.00)”. Further, the TON result is given as “‡‡‡‡ (10000-50000)” in data set [1], “‡‡ (1001-5000)” in data set [2], “‡‡‡ (5001-10000)” in data set [3] and “‡‡ (1001-5000)” in data set [4].

B2: Variant 1: P450-BM3 variant of SEQ ID NO: 14: Y52F; K95P; G115R; T176V; L216Y; D232H; E349T; M491A; T577A; E619D (protein)
chain: MTIKEMPQPKTFGELKNLPLLNTDKPVQALMKIADELGEIFKFEAPGLVTRFLSSQRLIKEACDESRFDKNLSQALKFARDFAGDGLFTSWTHEPNWKKAHNILLPSFSQQAMKRYHAMMVDIAVQLVQKWERLNADEHIEVPEDMTRLTLDTIGLCGFNYRFNSFYRDQPHPFIVSMVRALDEAMNKQQRANPDDPAYDENKRQFQEDIKVMNDYVDKIIADRKASGEQSHDLLTHMLNGKDPETGEPLDDENIRYQIITFLIAGHETTSGLLSFALYFLVKNPHVLQKAAEEAARVLVDPVPSYKQVKQLKYVGMVLNEALRLWPTAPAFSLYAKEDTVLGGEYPLTKGDELMVLIPQLHRDKTIWGDDVEEFRPERFENPSAIPQHAFKPFGNGQRACIGQQFALHEATLVLGMMLKHFDFEDHTNYELDIKETLTLKPEGFVVKAKSKKIPLGGIPSPSTEQSAKKVRKKAENAHNTPLLVLYGSNAGTAEGTARDLADIAMSKGFAPQVATLDSHAGNLPREGAVLIVTASYNGHPPDNAKQFVDWLDQASADEVKGVRYSVFGCGDKNWAATYQKVPAFIDETLAAKGAENIADRGEADASDDFEGTYEEWRDHMWSDVAAYFNLDIENSEDNKSTLSLQFVDSAADMPLAKMHGAFSTNVVASKELQQPGSARSTRHLEIELPKEASYQEGDHLGVIPRNYEGIVNRVTARFGLDASQQIRLEAEEEKLAHLPLAKTVSVEELLQYVELQDPVTRTQLRAMAAKTVCPPHKVELEALLEKQAYKEQVLAKRLTMLELLEKYPACEMKFSEFIALLPSIRPRYYSISSSPRVDEKQASITVSVVSGEAWSGYGEYKGIASNYLAELQEGDTITCFISTPQSEFTLPKDPETPLIMVGPGTGVAPFRGFVQARKQLKEQGQSLGEAHLYFGCRSPHEDYLYQEELENAQSEGIITLHTAFSRMPNQPKTYVQHVMEQDGKKLIELLDQGAHFYICGDGSQMAPAVEATLMKSYADVHQVSEADARLWLQQLEEKGRYAKDVWAG
modifications: P450_BM3
notes: K95P; G115R; T176V; L216Y; D232H; E349T; M491A; T577A; E619D
Turning to B2, the “% Conv.” value in data set [1] is listed as “+ (0-5.00)”; in data set [2], “+ (0-5.00)”; in data set [3] it was “+ (0-5.00)”; in data set [4], “++++ (15.01-20.00)”. The TON entry in data set [1] is “‡‡ (1001-5000)”; in data set [2], “‡ (0-1000)”; in data set [3], “‡‡ (1001-5000)”; in data set [4], “‡‡‡‡ (10000-50000)”. Moreover, the “FIOPC (F02)” value is listed as “**** (10.01-15.00)” in data set [1], “* (0.0-3.0)” in data set [2], “* (0.0-3.0)” in data set [3] and “**** (10.01-15.00)” in data set [4].

B3: Variant 2: P450-BM3 variant of SEQ ID NO: 14: Y52F; G115R; T176V; L216Y; D232H; P347T; E349T; T577A; D722S (protein)
chain: MTIKEMPQPKTFGELKNLPLLNTDKPVQALMKIADELGEIFKFEAPGLVTRFLSSQRLIKEACDESRFDKNLSQALKFARDFAGDGLFTSWTHEKNWKKAHNILLPSFSQQAMKRYHAMMVDIAVQLVQKWERLNADEHIEVPEDMTRLTLDTIGLCGFNYRFNSFYRDQPHPFIVSMVRALDEAMNKQQRANPDDPAYDENKRQFQEDIKVMNDYVDKIIADRKASGEQSHDLLTHMLNGKDPETGEPLDDENIRYQIITFLIAGHETTSGLLSFALYFLVKNPHVLQKAAEEAARVLVDPVPSYKQVKQLKYVGMVLNEALRLWPTAPAFSLYAKEDTVLGGEYTLTKGDELMVLIPQLHRDKTIWGDDVEEFRPERFENPSAIPQHAFKPFGNGQRACIGQQFALHEATLVLGMMLKHFDFEDHTNYELDIKETLTLKPEGFVVKAKSKKIPLGGIPSPSTEQSAKKVRKKAENAHNTPLLVLYGSNMGTAEGTARDLADIAMSKGFAPQVATLDSHAGNLPREGAVLIVTASYNGHPPDNAKQFVDWLDQASADEVKGVRYSVFGCGDKNWAATYQKVPAFIDETLAAKGAENIADRGEADASDDFEGTYEEWREHMWSDVAAYFNLDIENSEDNKSTLSLQFVDSAADMPLAKMHGAFSTNVVASKELQQPGSARSTRHLEIELPKEASYQEGDHLGVIPRNYEGIVNRVTARFGLSASQQIRLEAEEEKLAHLPLAKTVSVEELLQYVELQDPVTRTQLRAMAAKTVCPPHKVELEALLEKQAYKEQVLAKRLTMLELLEKYPACEMKFSEFIALLPSIRPRYYSISSSPRVDEKQASITVSVVSGEAWSGYGEYKGIASNYLAELQEGDTITCFISTPQSEFTLPKDPETPLIMVGPGTGVAPFRGFVQARKQLKEQGQSLGEAHLYFGCRSPHEDYLYQEELENAQSEGIITLHTAFSRMPNQPKTYVQHVMEQDGKKLIELLDQGAHFYICGDGSQMAPAVEATLMKSYADVHQVSEADARLWLQQLEEKGRYAKDVWAG
modifications: P450_BM3
notes: G115R; T176V; L216Y; D232H; P347T; E349T; T577A; D722S
For B3, the “% Conv.” value is recorded as “+ (0-5.00)” in data set [1], “+ (0-5.00)” in data set [2], “+ (0-5.00)” in data set [3] and “++++ (15.01-20.00)” in data set [4]. The TON result in data set [1] is recorded as “‡‡ (1001-5000)”; in data set [2], “‡ (0-1000)”; in data set [3], “‡‡ (1001-5000)”; in data set [4], “‡‡‡‡ (10000-50000)”. The “FIOPC (F02)” value in data set [1] is listed as “**** (10.01-15.00)”; in data set [2], “* (0.0-3.0)”; in data set [3], “* (0.0-3.0)”; in data set [4], “**** (10.01-15.00)”.
